Reference: patent US20260139048A1 (NANJING LEGEND BIOTECH, published 2026)
Substitutions are numbered along the chain they refer to. Where two headings read alike, the source gives them in different places. Values belong to the binder of their own block, whether it stands above or below them.

Key:
[1] = molecular target: T1, TIGIT on TIGIT-over expressing NFAT-Luc/Jurkat effector cells (GenScript reporter cell line) (UniProt Q495A1 22-244, limits assumed); assay: cell-based or functional assay
T1 sequence (looked up): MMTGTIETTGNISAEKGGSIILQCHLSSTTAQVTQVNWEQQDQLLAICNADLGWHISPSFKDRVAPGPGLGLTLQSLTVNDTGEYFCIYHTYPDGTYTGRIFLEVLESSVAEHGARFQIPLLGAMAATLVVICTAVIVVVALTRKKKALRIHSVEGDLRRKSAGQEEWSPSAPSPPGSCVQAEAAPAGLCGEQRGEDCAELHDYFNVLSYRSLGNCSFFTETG

[2] = molecular target: T2, human TIGIT expressed on CHO-K1 cells (human, UniProt Q495A1 22-244); assay: flow cytometry on CHO-K1 cells expressing human TIGIT
T2 construct: whole, on cells; also called human TIGIT-CHO-K1 cells; human TIGIT over-expressing cell line
T2 sequence (looked up): T1 sequence (looked up)

[3] = molecular target: T3, cynomolgus TIGIT expressed on CHO-K1 cells (cynomolgus, UniProt A0A7N9I9V4 89-312); assay: flow cytometry on CHO-K1 cells expressing cynomolgus TIGIT
T3 construct: whole, on cells; also called cynomolgus TIGIT over-expressing cell line

His-tagged human TIGIT [4] = molecular target: T4, His-tagged human TIGIT (human, UniProt Q495A1 22-141); assay: SPR (Biacore T200), antibody captured, His-tagged TIGIT analyte
T4 construct: SPR analyte; also called human TIGIT protein; not shown: His tag
T4 sequence: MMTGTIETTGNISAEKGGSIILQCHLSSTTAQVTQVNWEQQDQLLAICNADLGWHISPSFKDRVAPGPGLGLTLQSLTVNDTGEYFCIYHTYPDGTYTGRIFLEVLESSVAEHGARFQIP

[5] = molecular target: T5, His-tagged cynomolgus TIGIT (cynomolgus, UniProt A0A7N9I9V4 89-209); assay: as above
T5 construct: SPR analyte; also called cynomolgus TIGIT protein; not shown: His tag

[6] = molecular target: T2, human TIGIT expressed on CHO-K1 cells; assay: flow cytometry competition: biotinylated CD155-Fc on human TIGIT-CHO-K1 cells
His-tagged human TIGIT [7] = molecular target: T4, His-tagged human TIGIT; assay: SPR experiment 3, IgG from HEK293 supernatant captured
[8] = molecular target: T1, TIGIT on TIGIT-over expressing …; assay: cell-based or functional assay; remark: listed apart in the source
[9] = molecular target: T2, human TIGIT expressed on CHO-K1 cells; assay: flow cytometry on CHO-K1 cells expressing human TIGIT; remark: listed apart in the source
His-tagged human TIGIT [10] = molecular target: T4, His-tagged human TIGIT; assay: SPR experiment 2, IgG from HEK293 supernatant captured
[11] = molecular target: T3, cynomolgus TIGIT expressed on CHO-K1 …; assay: flow cytometry on CHO-K1 cells expressing cynomolgus TIGIT; remark: listed apart in the source
His-tagged human TIGIT [12] = molecular target: T4, His-tagged human TIGIT; assay: SPR (Biacore T200), antibody captured, His-tagged TIGIT analyte; remark: listed apart in the source
[13] = molecular target: T5, His-tagged cynomolgus TIGIT; assay: as above; remark: listed apart in the source
[14] = molecular target: T2, human TIGIT expressed on CHO-K1 cells; assay: flow cytometry competition: biotinylated CD155-Fc on human TIGIT-CHO-K1 cells; remark: listed apart in the source

T3 sequence (A0A7N9I9V4 entry or part of it): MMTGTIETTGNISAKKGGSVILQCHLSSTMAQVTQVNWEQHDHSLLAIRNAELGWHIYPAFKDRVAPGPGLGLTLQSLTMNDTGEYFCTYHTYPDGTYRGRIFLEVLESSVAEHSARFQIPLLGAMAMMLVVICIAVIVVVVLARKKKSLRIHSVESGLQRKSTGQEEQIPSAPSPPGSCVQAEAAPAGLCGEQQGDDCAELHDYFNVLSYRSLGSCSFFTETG
T5 sequence (A0A7N9I9V4 entry or part of it): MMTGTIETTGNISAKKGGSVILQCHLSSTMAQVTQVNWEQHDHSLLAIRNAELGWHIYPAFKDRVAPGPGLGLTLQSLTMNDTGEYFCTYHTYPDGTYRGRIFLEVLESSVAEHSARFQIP

B2: reshaped TIGIT-3 antibody 3VH3 + 3VL1.M3 (antibody, V domains shown)
VH: EVQLVESGGGLVQPGGSLRLSCAASGFTFSSYGMSWVRQAPGKGLELVATIKSDGGSTNLPDSVKGRFTISRDNSKNTLYLQMNSLRAEDTAVYYCVRGYFDYWGQGTTVTVSS
VL: DIQMTQSPSSLSASVGDRVTITCKASQDVKTAVAWYQQKPGKVPKLLIYWASTRHSGVPSRFSGSGSGTDFTLTISSLQPEDVATYYCQQYYSTPYTFGGGTKVEIK
notes: Full-length IgG, tested as HEK293 supernatant
- Kd (His-tagged human TIGIT [7]): 46 nM
- koff (His-tagged human TIGIT [7]): 0.0089 s⁻¹
- kon (His-tagged human TIGIT [7]): 190000 M⁻¹ s⁻¹

B6: TIGIT-94 chimeric antibody (antibody, human IgG1, kappa, V domains shown)
VH: EVKLVESGGGLVKPGGSLKLSCAASGFTFSTYTMSWVRQTPEKRLEWVATISSGGTYTHYPDSVKGRFTISRDNAKNTLYLQMSSLKSEDTAMYYCTRWFLSLYAMDYWGQGTSVTVSS
VL: DIVMTQSTSSLSASLGDRVTISCRASQDINNFLNWYQQKPAGTVDLLIYYTSRLHSGVPSRFSGSGSGTDYSLTISNLDQEDIATYFCQQGNTFPYTFGGGTRLEIKR
notes: Full-length chimeric IgG1 kappa
- Bottom (RLU) [1]: 9960 RLU
- EC50 [1]: 92.8 nM
- Top (RLU) [1]: 59800 RLU
- EC50 [2]: 0.51 nM
- EC50 [3]: 0.74 nM
- Kd (His-tagged human TIGIT [4]): 1.6 nM
- koff (His-tagged human TIGIT [4]): 0.0019 s⁻¹
- kon (His-tagged human TIGIT [4]): 1.2e+06 M⁻¹ s⁻¹
- Kd [5]: 7.7 nM
- koff [5]: 0.0075 s⁻¹
- kon [5]: 980000 M⁻¹ s⁻¹
- IC50 [6]: 0.72 nM

More lines, now with the values ahead:

- Bottom (RLU) [1]: 9300 RLU
- EC50 [1]: > 100 nM
- Top (RLU) [1]: 17000 RLU
- EC50 [2]: 0.4 nM
- EC50 [3]: 0.81 nM
- Kd (His-tagged human TIGIT [4]): 0.63 nM
- koff (His-tagged human TIGIT [4]): 0.0012 s⁻¹
- kon (His-tagged human TIGIT [4]): 2e+06 M⁻¹ s⁻¹
- Kd [5]: 47 nM
- koff [5]: 0.063 s⁻¹
- kon [5]: 1.3e+06 M⁻¹ s⁻¹
- IC50 [6]: 0.53 nM
B1: TIGIT-87 chimeric antibody (antibody, human IgG1, kappa, V domains shown)
VH: EVKLVESGPELVKPGASMKISCKASGYSFTGYTMNWVKQSHGKNLEWIGLINPYNGGTSYNQKFKGKATLTVDKSSSTAYMELLSLTSEDSAVYYCARYANRFENWFAYWGQGTLVTVSS
VL: DIQMTQSPASLSASVGETVTITCRASENIYSYLAWYQQKQGKSPQLLVYNAKTLAEGVPSRFSGSGSGTQFSLKINSLQPEDFGSYYCQHHYGTPWTFGGGTKLEIKR
notes: as for B6

- Kd (His-tagged human TIGIT [7]): 55 nM
- koff (His-tagged human TIGIT [7]): 0.012 s⁻¹
- kon (His-tagged human TIGIT [7]): 230000 M⁻¹ s⁻¹
B3: reshaped TIGIT-3 antibody 3VH3 + 3VL1.M4 (antibody, V domains shown)
VH: B2 VH
VL: B2 VL with H55Q
notes: as for B2

- Kd (His-tagged human TIGIT [7]): 17 nM
- koff (His-tagged human TIGIT [7]): 0.0038 s⁻¹
- kon (His-tagged human TIGIT [7]): 230000 M⁻¹ s⁻¹
B4: reshaped TIGIT-3 antibody 3VH3 + 3VL1.M1 (antibody, V domains shown)
VH: B2 VH
VL: B2 VL with K24R, V29I, V33L, A51S, S56T
notes: as for B2

- Bottom (RLU) [8]: 49400 RLU
- EC50 [8]: 11.1 nM
- Top (RLU) [8]: 135000 RLU
- EC50 [9]: 1.11 nM
- Kd (His-tagged human TIGIT [10]): 0.64 nM
- koff (His-tagged human TIGIT [10]): 0.00017 s⁻¹
- kon (His-tagged human TIGIT [10]): 270000 M⁻¹ s⁻¹
- EC50 [11]: 8.2 nM
- Kd (His-tagged human TIGIT [12]): 0.29 nM
- koff (His-tagged human TIGIT [12]): 9.8e-05 s⁻¹
- kon (His-tagged human TIGIT [12]): 340000 M⁻¹ s⁻¹
- Kd [13]: 130 nM
- koff [13]: 0.0078 s⁻¹
- kon [13]: 61000 M⁻¹ s⁻¹
- IC50 [14]: 1.1 nM
B5: huTIGIT-6-3 (antibody, human IgG1, kappa, V domains shown)
VH: QVQLVQSGAEVKKPGASVKVSCKASGYTFTENAMHWVRQAPGQRLEWIGGINPNQGGTSYSQKFQGRATLTVDTSASTAYMELSSLRSEDTAVYYCTRSSYYRYDLDYWGQGTTVTVSS
VL: DIQMTQSPSSLSASVGDRVTITCQASQDIKTALAWYQQKPGKAPKLLIYSASYRYTGVPSRFSGSGSGTDFTFTISSLQPEDIATYYCHQHYTTPWTFGGGTKLEIKR
notes: Humanized IgG; also called 6VH6.M6 + 6VL1.M1
